This note sets out measurements from US20220073608A1.

Assay [1] concerns the target T1, biotinylated hSEMA4D ECD-His (human) (UniProt Q92854).
T1 sequence (chain, biotinylated with Biotin-X-X-NHS at a molar ratio of 8,1; sites not stated): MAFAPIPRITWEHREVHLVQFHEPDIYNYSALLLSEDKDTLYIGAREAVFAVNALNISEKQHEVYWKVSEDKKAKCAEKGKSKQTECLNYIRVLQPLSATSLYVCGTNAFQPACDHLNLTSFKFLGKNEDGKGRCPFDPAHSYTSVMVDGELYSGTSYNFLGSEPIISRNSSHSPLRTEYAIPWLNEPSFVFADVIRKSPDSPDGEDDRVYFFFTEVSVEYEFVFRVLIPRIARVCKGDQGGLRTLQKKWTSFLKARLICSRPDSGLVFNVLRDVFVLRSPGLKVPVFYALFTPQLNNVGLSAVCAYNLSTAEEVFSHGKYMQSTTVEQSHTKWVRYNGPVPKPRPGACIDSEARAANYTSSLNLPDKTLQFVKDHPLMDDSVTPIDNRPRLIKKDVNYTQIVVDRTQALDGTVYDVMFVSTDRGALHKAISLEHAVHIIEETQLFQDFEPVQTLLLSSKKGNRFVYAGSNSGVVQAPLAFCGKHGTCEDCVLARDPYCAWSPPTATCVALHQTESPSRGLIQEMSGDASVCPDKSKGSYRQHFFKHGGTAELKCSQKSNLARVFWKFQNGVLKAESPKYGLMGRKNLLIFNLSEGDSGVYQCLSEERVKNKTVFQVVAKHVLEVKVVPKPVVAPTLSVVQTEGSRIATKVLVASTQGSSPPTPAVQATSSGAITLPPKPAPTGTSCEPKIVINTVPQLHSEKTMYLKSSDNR
Briefly: BLI (Octet-Red), scFv in bacterial periplasmic extract; off-rate ranking. In general terms: Biolayer interferometry detects binding as a change in optical thickness at a sensor tip.

The target of assay [2] is T2, human SEMA4D, full length, on CHO-K1 cells (CHO-K1 hSEMA4D) (human) (UniProt Q92854).
T2 sequence (looked up): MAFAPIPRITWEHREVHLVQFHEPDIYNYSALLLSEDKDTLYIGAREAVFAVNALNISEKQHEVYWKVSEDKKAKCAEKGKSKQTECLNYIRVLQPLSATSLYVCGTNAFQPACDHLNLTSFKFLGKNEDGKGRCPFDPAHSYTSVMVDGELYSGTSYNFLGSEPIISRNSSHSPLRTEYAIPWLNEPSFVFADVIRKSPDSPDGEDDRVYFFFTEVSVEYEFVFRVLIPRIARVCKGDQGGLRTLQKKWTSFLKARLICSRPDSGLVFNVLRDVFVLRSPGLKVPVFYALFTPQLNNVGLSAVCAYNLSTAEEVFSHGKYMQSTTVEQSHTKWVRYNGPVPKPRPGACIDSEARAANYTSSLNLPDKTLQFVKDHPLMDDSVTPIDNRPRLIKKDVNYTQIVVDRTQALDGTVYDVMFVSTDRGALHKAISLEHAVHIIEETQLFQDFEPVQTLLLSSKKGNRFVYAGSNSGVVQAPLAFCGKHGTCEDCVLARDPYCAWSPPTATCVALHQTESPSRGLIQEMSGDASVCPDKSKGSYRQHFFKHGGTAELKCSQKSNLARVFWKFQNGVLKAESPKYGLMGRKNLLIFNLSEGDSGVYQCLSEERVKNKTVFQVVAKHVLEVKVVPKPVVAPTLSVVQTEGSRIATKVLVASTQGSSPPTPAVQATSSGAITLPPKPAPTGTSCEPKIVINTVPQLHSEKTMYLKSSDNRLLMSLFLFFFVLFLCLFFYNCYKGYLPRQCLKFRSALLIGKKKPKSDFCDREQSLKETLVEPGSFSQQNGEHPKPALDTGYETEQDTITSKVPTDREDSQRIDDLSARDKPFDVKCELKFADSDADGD
Briefly: competitive FACS, CHO-K1 hSEMA4D cells; unlabelled Ab 6 ug/mL first, competitor Alexa 488-5D8 0.67 ug/mL.

Assay [3] has as its target T2, human SEMA4D, full length, on CHO-K1 cells (CHO-K1 hSEMA4D) (human). Briefly: competitive FACS, CHO-K1 hSEMA4D cells; unlabelled Ab 6 ug/mL first, competitor Alexa 488-2D5 0.67 ug/mL.
The target is the same in assay [4]. Briefly: competitive FACS, CHO-K1 hSEMA4D cells; unlabelled Ab 6 ug/mL first, competitor Alexa 488-VX15 0.67 ug/mL.

B1: 2D5-b1-3D9 scFv (periplasmic extract) (scFv, part only; not given: linker, domain order, tags, V domains shown, not shown: another chain or arm of the molecule; large carriers; small tags and cut ends)
VH: QVTLRESGPALVKPTQTLTLTCTFSGFSLTTTGVAVTWIRQPPGKALEWLALIDWDDDKYYSTSLKTRLTISKDTSKNQVVLTMTNMDPVDTATYYCARIASGDSGGYFADWGQGTLVTVSS
VL: SYELTQPPSVSVSPGQTASITCSGDKLDDKYVYWYQQKPGQSPVLVIYMDNKRKSGIPERFSGSNSGNTATLTISGTQAMDEADYYCQAWESSSDQYVFGTGTKVTVL
B1: in assay [1], the fold reduction of off-rate against the wild type is 45 times.

B2: VX15 (antibody, INN chains, looked up, V domains shown)
VH: QVQLVQSGAEVKKPGSSVKVSCKASGYSFSDYYMHWVRQAPGQGLEWMGQINPTTGGASYNQKFKGKATITVDKSTSTAYMELSSLRSEDTAVYYCARYYYGRHFDVWGQGTTVTVSS
VL: DIVMTQSPDSLAVSLGERATINCKASQSVDYDGDSYMNWYQQKPGQPPKLLIYAASNLESGVPDRFSGSGSGTDFTLTISSLQAEDVAVYYCQQSNEDPYTFGQGTKLEIK
For B2, the figures for the inhibition rate (%) in assay [2], in assay [3] and in assay [4] were 98%, 96% and 97%, respectively.
